According to patent publication US10654893B2, “Self-assembling peptide compositions” (3-D MATRIX, LTD., priority 2014, dated 2020):

Columns and labels:
Format in all cases: physicochemical
[1] = Congo Red assay of gel formation in PBS solution (pH 7.4); conditions: 0.5%, 1.0%, 1.5%, 2.0% and 2.5%
Experimental: A Congo Red assay was performed to determine gel formation of peptide compositions in a PBS (Phosphate buffered saline) solution (pH 7.4), as shown in FIG. 1. 100 μl of each gel at selected concentrations were plated on a glass slide. After 30 seconds, 500 μl of 1% Congo Red solution was added around and on top of each of the composition aliquots and then the excess Congo Red solution was wiped off prior to examination. RADA16 (SEQ ID NO:1), IEIK13 (SEQ ID NO:3), and KLD12 (SEQ ID NO:2) were plated at selected concentrations of 0.5%, 1.0%, 1.5%, 2.0% and 2.5%. Visual observation determined the success or failure of gelation at each concentration.

[2] = Visual observation of peptide compositions with selected salts (cloud point, critical ionic strength); conditions: for Observation: room temperature; for Conc. at cloud point / Ionic strength at cloud point: visual observation of solubility
Experimental: Visual observations of RADA16 (SEQ ID NO:1), KLD12 (SEQ ID NO:2), and IEIK13 (SEQ ID NO:3) compositions with selected salts (e.g. KCl, MgCl2, CaCl2) are summarized in Tables 7-9. […] Apparent stiffness of RADA16 (SEQ ID NO:1), KLD12 (SEQ ID NO:2) and IEIK13 (SEQ ID NO:3) compositions was increased with increased ionic strength.
Critical ion strengths were determined from the visual observations recorded in Tables 7-9. When the ionic strengths of peptide compositions were higher than 0.9 M (RADA16 (SEQ ID NO:1)), 0.3 M (KLD12 (SEQ ID NO:2)) or 0.03 M (IEIK13 (SEQ ID NO:3)), the peptide compositions began phase separation. 0.9 M, 0.3 M and 0.03 M may represent critical ion strengths for RADA16 (SEQ ID NO:1), KLD12 (SEQ ID NO:2) and IEIK13 (SEQ ID NO:3), respectively.

[3] = pH of reference peptide compositions in water; conditions: reference composition in water
Source text: Table 2, below, presents pH concentrations observed for reference compositions in which the indicated peptide is solubilized in water at the indicated concentration.

[4] = Stiffness and reversibility of RADA16 compositions with salts
Experimental: (§1) FIGS. 41A-41D depict the protocol used to follow peptide dissolution and to assess effects of particular anions and/or cations, and/or their concentration, on certain RADA16 (SEQ ID NO:1) compositions. As shown, peptide powder in a vial was dissolved in deionized water with vortexing and sonication. The particular peptide composition utilized in this Example was a 1% composition of RADA16 (SEQ ID NO:1) that was mixed at a 1:1 ratio with a 2× salt solution to obtain a final concentration of 0.5% RADA16 (SEQ ID NO:1) and the desired molar concentration of salt.
The protocol depicted in FIGS. 41A-41D was followed to analyze stiffness of peptide compositions containing either 2.5% RADA16 (SEQ ID NO:1) and no added salt or 2.5% RADA16 (SEQ ID NO:1) and 0.125 M CaCl2. Results are shown in FIG. 44, which provides a basic understanding of the viscoelastic properties of the resulting compositions.
The protocol depicted in FIGS. 41A-41D was followed to prepare solutions of 0.5% RADA16 mixed with 0.125, 0.25, or 0.5 M CaCl2 were prepared. The compositions were subjected to mechanical stress through vortexing and sonication, so that their structure was thoroughly disrupted (e.g., randomized). Disrupted compositions were then placed at room temperature for 48 hours to allow self-assembly to take place.

[5] = Vial inversion test of 0.5% RADA16 gels with CaCl2
Experimental: as §1
The protocol depicted in FIGS. 41A-41D was followed to prepare 0.5% solutions of RADA16 (SEQ ID NO:1) with different concentrations of CaCl2. Mixed solutions were allowed to sit for a relaxation period of about 24 hours. Vials were then inverted upside down so that gel properties could be assessed.

Arg-Ala-Asp-Ala-Arg-Ala-Asp-Ala-Arg-Ala-Asp-Ala-Arg-Ala-Asp-Ala [RADA16]
Gel formation (success or failure of gelation) [1]: gelled at all concentrations
Observation ([2]; RADA16 0.5%, DPBS (pH 3.2) 1.0 M, ionic strength 1.0 M): Cloudy, phase-separated
Observation ([2]; RADA16 0.55%, DPBS (pH 3.2) 0.95 M, ionic strength 0.95 M): Slightly cloudy, brittle gel
Observation ([2]; RADA16 0.6%, DPBS (pH 3.2) 0.9 M, ionic strength 0.9 M): Clear, thick, stiffer gel
Observation ([2]; RADA16 0.75%, DPBS (pH 3.2) 0.75 M, ionic strength 0.75 M): Clear, thick, stiffer gel
Observation ([2]; RADA16 0.9%, DPBS (pH 3.2) 0.6 M, ionic strength 0.6 M): Clear, thick, stiffer gel
Observation ([2]; RADA16 0.93%, KCl 1.15 M, ionic strength 1.15 M): Cloudy, phase-separated
Observation ([2]; RADA16 0.95%, KCl 1.1 M, ionic strength 1.1 M): Slightly cloudy, brittle gel
Observation ([2]; RADA16 0.98%, KCl 1.05 M, ionic strength 1.05 M): Slightly cloudy, thick,
Observation ([2]; RADA16 1.0%, KCl 1.0 M, ionic strength 1.0 M): Clear, thick, stiffer gel
Observation ([2]; RADA16 1.0%, NaCl 1.0 M, ionic strength 1.0 M): Cloudy, phase-separated
Observation ([2]; RADA16 1.03%, KCl 0.95 M, ionic strength 0.95 M): Clear, thick, stiffer gel
Observation ([2]; RADA16 1.03%, NaCl 0.95 M, ionic strength 0.95 M): Cloudy, phase-separated
Observation ([2]; RADA16 1.05%, DPBS (pH 3.2) 0.45 M, ionic strength 0.45 M): Clear, thick, stiffer gel
Observation ([2]; RADA16 1.05%, KCl 0.9 M, ionic strength 0.9 M): Clear, thick, stiffer gel
Observation ([2]; RADA16 1.05%, NaCl 0.9 M, ionic strength 0.9 M): Slightly cloudy, brittle gel
Observation ([2]; RADA16 1.08%, NaCl 0.85 M, ionic strength 0.85 M): Clear, thick, stiffer gel
Observation ([2]; RADA16 1.10%, NaCl 0.8 M, ionic strength 0.8 M): Clear, thick, stiffer gel
Observation ([2]; RADA16 1.13%, KCl 0.75 M, ionic strength 0.75 M): Clear, thick, stiffer gel
Observation ([2]; RADA16 1.13%, NaCl 0.75 M, ionic strength 0.75 M): Clear, thick, stiffer gel
Observation ([2]; RADA16 1.2%, DPBS (pH 3.2) 0.3 M, ionic strength 0.3 M): Clear, thick, stiffer gel
Observation ([2]; RADA16 1.2%, KCl 0.6 M, ionic strength 0.6 M): Clear, thick, stiffer gel
Observation ([2]; RADA16 1.2%, NaCl 0.6 M, ionic strength 0.6 M): Clear, thick, stiffer gel
Observation ([2]; RADA16 1.27%, KCl 0.45 M, ionic strength 0.45 M): Clear, thick, stiffer gel
Observation ([2]; RADA16 1.27%, NaCl 0.45 M, ionic strength 0.45 M): Clear, thick, stiffer gel
Observation ([2]; RADA16 1.28%, CaCl2 0.433 M, ionic strength 1.3 M): Cloudy, phase-separated
Observation ([2]; RADA16 1.28%, MgCl2 0.433 M, ionic strength 1.3 M): Cloudy, phase-separated
Observation ([2]; RADA16 1.29%, CaCl2 0.417 M, ionic strength 1.25 M): Slightly cloudy, brittle gel
Observation ([2]; RADA16 1.29%, MgCl2 0.417 M, ionic strength 1.25 M): Slightly cloudy, brittle gel
Observation ([2]; RADA16 1.3%, CaCl2 0.4 M, ionic strength 1.2 M): Slightly cloudy, thick,
Observation ([2]; RADA16 1.3%, MgCl2 0.4 M, ionic strength 1.2 M): Slightly cloudy, thick,
Observation ([2]; RADA16 1.31%, CaCl2 0.383 M, ionic strength 1.15 M): Clear, thick, stiffer gel
Observation ([2]; RADA16 1.31%, MgCl2 0.383 M, ionic strength 1.15 M): Clear, thick, stiffer gel
Observation ([2]; RADA16 1.32%, CaCl2 0.35 M, ionic strength 1.05 M): Clear, thick, stiffer gel
Observation ([2]; RADA16 1.32%, MgCl2 0.35 M, ionic strength 1.05 M): Clear, thick, stiffer gel
Observation ([2]; RADA16 1.35%, CaCl2 0.3 M, ionic strength 0.9 M): Clear, thick, stiffer gel
Observation ([2]; RADA16 1.35%, DPBS (pH 3.2) 0.15 M, ionic strength 0.15 M): Clear, thick, stiffer gel
Observation ([2]; RADA16 1.35%, KCl 0.3 M, ionic strength 0.3 M): Clear, thick, stiffer gel
Observation ([2]; RADA16 1.35%, MgCl2 0.3 M, ionic strength 0.9 M): Clear, thick, stiffer gel
Observation ([2]; RADA16 1.35%, NaCl 0.3 M, ionic strength 0.3 M): Clear, thick, stiffer gel
Observation ([2]; RADA16 1.38%, CaCl2 0.25 M, ionic strength 0.75 M): Clear, thick, stiffer gel
Observation ([2]; RADA16 1.38%, MgCl2 0.25 M, ionic strength 0.75 M): Clear, thick, stiffer gel
Observation ([2]; RADA16 1.4%, CaCl2 0.2 M, ionic strength 0.6 M): Clear, thick, stiffer gel
Observation ([2]; RADA16 1.4%, MgCl2 0.2 M, ionic strength 0.6 M): Clear, thick, stiffer gel
Observation ([2]; RADA16 1.43%, CaCl2 0.15 M, ionic strength 0.45 M): Clear, thick, stiffer gel
Observation ([2]; RADA16 1.43%, KCl 0.15 M, ionic strength 0.15 M): Clear, thick, stiffer gel
Observation ([2]; RADA16 1.43%, MgCl2 0.15 M, ionic strength 0.45 M): Clear, thick, stiffer gel
Observation ([2]; RADA16 1.43%, NaCl 0.15 M, ionic strength 0.15 M): Clear, thick, stiffer gel
Observation ([2]; RADA16 1.45%, CaCl2 0.1 M, ionic strength 0.3 M): Clear, thick, stiffer gel
Observation ([2]; RADA16 1.45%, MgCl2 0.1 M, ionic strength 0.3 M): Clear, thick, stiffer gel
Observation ([2]; RADA16 1.48%, CaCl2 0.05 M, ionic strength 0.15 M): Clear, thick, stiffer gel
Observation ([2]; RADA16 1.48%, MgCl2 0.05 M, ionic strength 0.15 M): Clear, thick, stiffer gel
Observation ([2]; RADA16 1.5%, CaCl2 0 M, ionic strength 0 M): Clear, thick gel
Observation ([2]; RADA16 1.5%, DPBS (pH 3.2) 0 M, ionic strength 0 M): Clear, thick gel
Observation ([2]; RADA16 1.5%, KCl 0 M, ionic strength 0 M): Clear, thick gel
Observation ([2]; RADA16 1.5%, MgCl2 0 M, ionic strength 0 M): Clear, thick gel
Observation ([2]; RADA16 1.5%, NaCl 0 M, ionic strength 0 M): Clear, thick gel
Ionic strength range that did not noticeably change the opacity of compositions ([2]; approximately, depending on salt identities): 0.85˜1.15 M
Critical ion strength (above it compositions began phase separation) ([2]; from visual observations of Tables 7-9): 0.9 M
Critical ionic strength (when the composition becomes cloudy) ([2]; range over salts): 0.9˜1.2 M
Conc. at cloud point ([2]; salt CaCl2): 0.383~0.4 M
Ionic strength at cloud point ([2]; salt CaCl2): 1.15~1.2 M
Conc. at cloud point ([2]; salt DPBS (pH 3.2)): 0.9~0.95 M
Ionic strength at cloud point ([2]; salt DPBS (pH 3.2)): 0.9~0.95 M
Conc. at cloud point ([2]; salt KCl): 1.0~1.05 M
Ionic strength at cloud point ([2]; salt KCl): 1.0~1.05 M
Conc. at cloud point ([2]; salt MgCl2): 0.383~0.4 M
Ionic strength at cloud point ([2]; salt MgCl2): 1.15~1.2 M
Conc. at cloud point ([2]; salt NaCl): 0.85~0.9 M
Ionic strength at cloud point ([2]; salt NaCl): 0.85~0.9 M
pH ([3]; Concentration 0.5%): 2.7
pH ([3]; Concentration 1.0%): 2.5
pH ([3]; Concentration 1.5%): 2.5
pH ([3]; Concentration 2.0%): 2.5
pH ([3]; Concentration 2.5%): 2.5
Reversibility after mechanical perturbation ([4]; 0.5% RADA16, 0.125 or 0.25 M CaCl2, vortexing and sonication, 48 hours at room temperature): reversibility can be maintained
Stiffness after disruption ([4]; 0.5% RADA16, 0.5 M CaCl2, vortexing and sonication, 48 hours at room temperature): dramatically less stiffness
Stiffness with salt versus no added salt ([4]; 2.5% RADA16 and 0.125 M CaCl2 versus 2.5% RADA16): noticeable increase in stiffness
Gel functionality on vial inversion ([5]; 0.250 M CaCl2): fully functional gel
Gel functionality on vial inversion ([5]; 0.500 M CaCl2): semi-functional gel
Gel functionality on vial inversion ([5]; 1M CaCl2): non-functional gel
